Assay results as given in US20100047893A1 (RESEARCH FOUNDATION OF STATE UNIVERSITY OF NEW YORK, published 2010).

Biological target: the molecule itself
Test: nondenaturing 4-20% PAGE and western blot of 1 ug recombinant TbPRMT7-His

B1: recombinant TbPRMT7-His (enzyme)
chain: MPPKQHRHQKKDKNDNALQNTIGFVPPGATLASVSGYRPPDAFVNRIDRNIPVPARLRHTPVSLIEAVNDFHYAMMNDEERNNFYYEVLKKHVTPETGVLEIGAGSGLLSLMAAKLGAKWVVAVEGSEELAKLARENIRANNMEHQVKVLHMMSTELKSKHLPEPPDVLLSEIFGTMMLGESALDYVVDVRNRLLKPTTKIIPQFGTQYAVPIECDALHRISSVSGWRDLDLKHMMTLQDTVSIVFAKHYGIRMNSVNFRRLSDPIELFRVDFSSSNRNDIPRRKHFDVVAKESGTAHAMLFYWKVTDDEFVMSTDPEDTVNNFPRDMQWGQALQLLDASNGPLPTPVVFTEGKNYNFECNFSGDRVILHMQLCPESGNGEMTECEGKTT
notes: also called T. brucei PRMT7; Tb927.7.5490; not shown: His tag
B1: binds.
